Source: paper PMC11965559 (Nature Communications, 2024)

T1: HT-Lot5ΔC, Lot5 (residues 1–227) with N-terminal HT-tag (S. cerevisiae, UniProt P34234 1-227)
T1 sequence (looked up): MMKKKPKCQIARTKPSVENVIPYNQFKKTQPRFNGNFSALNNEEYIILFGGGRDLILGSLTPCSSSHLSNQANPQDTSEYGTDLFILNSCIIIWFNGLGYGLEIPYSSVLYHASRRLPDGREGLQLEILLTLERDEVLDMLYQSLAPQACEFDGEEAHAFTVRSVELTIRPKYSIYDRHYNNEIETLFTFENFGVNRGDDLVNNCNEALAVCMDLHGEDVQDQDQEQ

T2: full-length Lot5 with N-terminal HT-tag (S. cerevisiae, UniProt P34234 1-306)
T2 sequence (looked up): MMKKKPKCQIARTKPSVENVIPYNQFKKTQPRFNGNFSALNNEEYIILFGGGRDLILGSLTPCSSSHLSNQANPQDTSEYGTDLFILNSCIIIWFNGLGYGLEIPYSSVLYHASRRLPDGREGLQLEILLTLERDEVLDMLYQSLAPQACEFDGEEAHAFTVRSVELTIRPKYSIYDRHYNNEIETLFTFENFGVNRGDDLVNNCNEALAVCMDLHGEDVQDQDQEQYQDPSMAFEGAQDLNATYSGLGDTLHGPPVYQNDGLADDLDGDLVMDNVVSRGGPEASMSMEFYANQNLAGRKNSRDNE

T3: D1/D2/F/E/G pentamer (5Sm) (S. cerevisiae, UniProt Q02260 1-109; Q06217 1-110; P54999 1-86; Q12330 1-94; P40204 1-77)
T3 sequence (looked up) 1: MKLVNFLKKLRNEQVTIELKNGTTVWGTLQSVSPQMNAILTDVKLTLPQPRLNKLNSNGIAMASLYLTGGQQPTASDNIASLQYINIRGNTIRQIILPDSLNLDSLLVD
T3 sequence (looked up) 2: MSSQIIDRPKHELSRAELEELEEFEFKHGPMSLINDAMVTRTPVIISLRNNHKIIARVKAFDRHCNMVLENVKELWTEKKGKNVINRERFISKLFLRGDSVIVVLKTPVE
T3 sequence (looked up) 3: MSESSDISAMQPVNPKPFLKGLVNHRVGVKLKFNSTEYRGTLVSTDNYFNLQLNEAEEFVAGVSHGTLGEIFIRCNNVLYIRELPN
T3 sequence (looked up) 4: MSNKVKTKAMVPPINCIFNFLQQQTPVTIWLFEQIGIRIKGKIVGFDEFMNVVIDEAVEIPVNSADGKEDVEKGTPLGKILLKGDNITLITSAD
T3 sequence (looked up) 5: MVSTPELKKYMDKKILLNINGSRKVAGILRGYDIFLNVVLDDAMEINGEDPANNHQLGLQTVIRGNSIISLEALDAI

B1: Lot5ΔC, Lot5 (residues 1–227), as used in GFC (domain or fragment, S. cerevisiae, UniProt P34234 1-227, looked up)
chain: MMKKKPKCQIARTKPSVENVIPYNQFKKTQPRFNGNFSALNNEEYIILFGGGRDLILGSLTPCSSSHLSNQANPQDTSEYGTDLFILNSCIIIWFNGLGYGLEIPYSSVLYHASRRLPDGREGLQLEILLTLERDEVLDMLYQSLAPQACEFDGEEAHAFTVRSVELTIRPKYSIYDRHYNNEIETLFTFENFGVNRGDDLVNNCNEALAVCMDLHGEDVQDQDQEQ

Assays:
[1] = target: T1, HT-Lot5ΔC, Lot5 (residues 1–227) with …; assay: pull-down
[2] = target: T2, full-length Lot5 with N-terminal HT-tag; assay: pull-down
[3] = target: B1; assay: SEC
[4] = target: T3, D1/D2/F/E/G pentamer (5Sm); assay: SEC
[5] = target: T3, D1/D2/F/E/G pentamer (5Sm); assay: pull-down

| binding result [1] | binding result [2] | binding result [3] | binding result [4] | binding result [5] | Binder |
| --- | --- | --- | --- | --- | --- |
| binds | binds | binds | – | – | D1/D2 (SmD1/SmD2 subcomplex, HT-tag removed) (complex, S. cerevisiae) chain 1: MKLVNFLKKLRNEQVTIELKNGTTVWGTLQSVSPQMNAILTDVKLTLPQPRLNKLNSNGIAMASLYLTGGQQPTASDNIASLQYINIRGNTIRQIILPDSLNLDSLLVD chain 2: MSSQIIDRPKHELSRAELEELEEFEFKHGPMSLINDAMVTRTPVIISLRNNHKIIARVKAFDRHCNMVLENVKELWTEKKGKNVINRERFISKLFLRGDSVIVVLKTPVE |
| – | – | – | binds | – | B1 |
| – | – | – | binds | – | Brr1, full length, HT-tag removed (natural protein, S. cerevisiae, UniProt Q99177 1-341, looked up) MKRGESQAPDAIFGQSRAFALSDSSVNPDVIEYLKSVRQEALRTNAISIKNHMNLQKRTRHKSSMYDDEDEGALKRHAISPSLIRLQRNVEIWVRWFNSVKATVLTNAYEFTGYEDETLDLLLLFLKNYLEDMPSKCTTVEKIISVLNQHSFPEKAEEKEENLQIDEEWAKNILVRLEKTKIDSVEDVKKVITEGDKHELVGYNQWFQYLINNEPQHTTFHEKITSKQLWVLIKYMSNTWIKEIHKKGRHYRRLQDWLFYILVHTPERVTAEYTSILRDLGKKCLELIQKKPVEAHENKITLPKEMAELNVEIPAAVENMTITELTVSVIAVNYGQKDLIE |
| – | – | – | – | binds | HT-Brr1, full-length Brr1 with N-terminal HT-tag (natural protein, S. cerevisiae, UniProt Q99177 1-341, looked up) MKRGESQAPDAIFGQSRAFALSDSSVNPDVIEYLKSVRQEALRTNAISIKNHMNLQKRTRHKSSMYDDEDEGALKRHAISPSLIRLQRNVEIWVRWFNSVKATVLTNAYEFTGYEDETLDLLLLFLKNYLEDMPSKCTTVEKIISVLNQHSFPEKAEEKEENLQIDEEWAKNILVRLEKTKIDSVEDVKKVITEGDKHELVGYNQWFQYLINNEPQHTTFHEKITSKQLWVLIKYMSNTWIKEIHKKGRHYRRLQDWLFYILVHTPERVTAEYTSILRDLGKKCLELIQKKPVEAHENKITLPKEMAELNVEIPAAVENMTITELTVSVIAVNYGQKDLIE |
| binds | binds | binds | – | – | D3/B (SmD3/SmB subcomplex, HT-tag removed) (complex, S. cerevisiae) chain 1: MSKIQVAHSSRLANLIDYKLRVLTQDGRVYIGQLMAFDKHMNLVLNECIEERVPKTQLDKLRPRKDSKDGTTLNIKVEKRVLGLTILRGEQILSTVVEDKPLLSK chain 2: MTMNGIPVKLLNEAQGHIVSLELTTGATYRGKLVESEDSMNVQLRDVIATEPQGAVTHMDQIFVRGSQIKFIVVPDLLKNAPLFKKNS |
